Residue numbers refer to the chain shown, from its start. Names and notes keep the numbering of the source. One block for each binder: values may come before it.
Columns and labels:
[1] = target: the molecule itself; assay: SEC; HiLoad 16/60 Superdex 200 PG, 25 mM Tris-HCl pH 8.0, 150 mM NaCl with detergent (DDM, UDM, UTM, LMNG, LDAO or FC12), 4°C; elution volume compared with that expected for dimers in detergent micelles
[2] = target: the molecule itself; assay: crystal structure; OmpF crystallised from the FC12-purified BmrA sample with 5 mM ADP; PEG 1500, 2-methyl-2,4-pentanediol, 0.1 M Tris-HCl pH 8.0, 19°C; space group C2; molecular replacement with an OmpF trimer
[3] = target: T1, E504Q BmrA mutant, full-length, His6-tagged (uncleaved) (Bacillus subtilis, UniProt O06967 1-589, E504Q); assay: pull-down; second Ni2+ High Trap chelating column in DDM after partial trypsin cleavage of the N-terminal His6 tag; flow-through against the peak eluted with 250 mM imidazole, fractions on SDS-PAGE; conditions: both partners purified
T1 construct: BmrA, Bacillus subtilis, E504Q mutant; the part of the sample left uncut after a short trypsin digestion with 2 mM ATP and MgCl2; also called tagged, uncleaved monomer; source: E. coli membranes, solubilised with DDM, purified (Ni2+ high trap chelating column, PD-10 desalting); not shown: His6, N-terminal, kept
T1 sequence (looked up): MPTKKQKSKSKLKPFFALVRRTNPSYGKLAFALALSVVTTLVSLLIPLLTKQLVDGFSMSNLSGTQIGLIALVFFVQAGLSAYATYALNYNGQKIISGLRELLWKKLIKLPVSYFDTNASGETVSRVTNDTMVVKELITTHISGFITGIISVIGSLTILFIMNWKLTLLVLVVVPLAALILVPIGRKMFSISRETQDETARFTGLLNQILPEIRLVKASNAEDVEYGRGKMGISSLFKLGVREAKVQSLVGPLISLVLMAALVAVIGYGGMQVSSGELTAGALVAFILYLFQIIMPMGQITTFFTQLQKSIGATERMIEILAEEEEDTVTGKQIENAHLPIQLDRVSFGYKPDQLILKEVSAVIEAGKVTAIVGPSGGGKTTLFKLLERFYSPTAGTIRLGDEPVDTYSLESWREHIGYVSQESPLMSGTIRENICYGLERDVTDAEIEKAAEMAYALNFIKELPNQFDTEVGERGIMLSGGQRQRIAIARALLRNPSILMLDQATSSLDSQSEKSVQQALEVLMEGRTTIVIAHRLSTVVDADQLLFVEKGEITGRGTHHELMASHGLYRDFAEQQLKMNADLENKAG

B1: BmrA (Bacillus multidrug resistance ATP), 6-histidine N-terminal tag (natural protein, Bacillus subtilis, UniProt O06967 1-589, looked up)
chain: T1 sequence (looked up) with Q504E
notes: also called multidrug ABC transporter BmrA; source: E. coli C41(DE3) membranes, solubilised and purified in detergent (Q-Sepharose and Ni column in FC12; or Ni-NTA and SEC in DDM, UDM, UTM, LMNG, LDAO or FC12); not shown: His6, N-terminal, kept
- stoichiometry N [1]: 2

B2: Outer membrane protein F (OmpF) (natural protein, E. coli (endogenous in C41(DE3)), UniProt P02931 23-362, looked up)
chain: AEIYNKDGNKVDLYGKAVGLHYFSKGNGENSYGGNGDMTYARLGFKGETQINSDLTGYGQWEYNFQGNNSEGADAQTGNKTRLAFAGLKYADVGSFDYGRNYGVVYDALGYTDMLPEFGGDTAYSDDFFVGRVGGVATYRNSNFFGLVDGLNFAVQYLGKNERDTARRSNGDGVGGSISYEYEGFGIVGAYGAADRTNLQEAQPLGNGKKAEQWATGLKYDANNIYLAANYGETRNATPITNKFTNTSGFANKTQDVLLVAQYQFDFGLRPSIAYTKSKAKDVEGIGDVDLVNYFEVGATYYFNKNMSTYVDYIINQIDSDNKLGVGSDDTVAVGIVYQF
notes: Outer membrane protein F of E. coli, identified by mass spectrometry as P02931; structure deposited as PDB 4JFB, solved with a trimer of PDB 2ZFG as search model; The expression strain is C41(DE3), whose OmpF may differ from that entry; also called outer membrane porin OmpF; source: endogenous, E. coli C41(DE3); co-extracted and co-purified with BmrA in FC12, crystallised from that sample
- stoichiometry N [2]: 3

- binding result [3]: binds
B3: E504Q BmrA mutant, untagged, cleaved by trypsin (starts at Leu12) (domain or fragment, Bacillus subtilis, UniProt O06967 12-589, looked up)
chain: LKPFFALVRRTNPSYGKLAFALALSVVTTLVSLLIPLLTKQLVDGFSMSNLSGTQIGLIALVFFVQAGLSAYATYALNYNGQKIISGLRELLWKKLIKLPVSYFDTNASGETVSRVTNDTMVVKELITTHISGFITGIISVIGSLTILFIMNWKLTLLVLVVVPLAALILVPIGRKMFSISRETQDETARFTGLLNQILPEIRLVKASNAEDVEYGRGKMGISSLFKLGVREAKVQSLVGPLISLVLMAALVAVIGYGGMQVSSGELTAGALVAFILYLFQIIMPMGQITTFFTQLQKSIGATERMIEILAEEEEDTVTGKQIENAHLPIQLDRVSFGYKPDQLILKEVSAVIEAGKVTAIVGPSGGGKTTLFKLLERFYSPTAGTIRLGDEPVDTYSLESWREHIGYVSQESPLMSGTIRENICYGLERDVTDAEIEKAAEMAYALNFIKELPNQFDTEVGERGIMLSGGQRQRIAIARALLRNPSILMLDQATSSLDSQSEKSVQQALEVLMEGRTTIVIAHRLSTVVDADQLLFVEKGEITGRGTHHELMASHGLYRDFAEQQLKMNADLENKAG
notes: BmrA, Bacillus subtilis, E504Q mutant, cut by trypsin between Lys11 and Leu12; The His6 tag is lost together with residues 1-11; also called untagged BmrA; untagged, cleaved, monomer
